Data from patent US7387779B2, “Anti-angiogenic proteins and fragments and methods of use thereof” (Beth Israel Deaconess Medical Center, priority 1998, dated 2008).

B1: Tum-1: residues 54 to 244 of Tumstatin, lacking the N-terminal 53 amino acids (SEQ ID NO:22) (protein)
chain: QRAHGQDLGTLGSCLQRFTTMPFLFCNVNDVCNFASRNDYSYWLSTPALMPMNMAPITGRALEPYISRCTVCEGPAIAIAVHSQTTDIPPCPHGWISLWKGFSFIMFTSAGSEGTGQALASPGSCLEEFRASPFLECHGRGTCNYYSNSYSFWLASLNPERMFRKPIPSTVKAGELEKIISRCQVCMKKRH
modifications: Tum-1 (Tumstatin N-53) (amino acids 54-244 of SEQ ID NO10)
B2: Tumstatin-44-131: residues 44 to 131 of full-length Tumstatin (SEQ ID NO:33) (protein)
chain: FSFLFVQGNQRAHGQDLGTLGSCLQRFTTMPFLFCNVNDVCNFASRNDYSYWLSTPALMPMNMAPITGRALEPYISRCTVCEGPAIAI
modifications: Tumstatin-45-132 (amino acids 45-132 of SEQ ID NO10)
B3: Tum-4: residues 181 to 244 of Tumstatin (SEQ ID NO:25) (protein)
chain: EFRASPFLECHGRGTCNYYSNSYSFWLASLNPERMFRKPIPSTVKAGELEKIISRCQVCMKKRH
modifications: Tum-4 (amino acids 181-244 of SEQ ID NO10)
B4: Tumstatin: NC1 domain of the α3 chain of type IV collagen, residues 1-244 (SEQ ID NO:10) (protein, listed as Homo sapiens)
chain: GLKGKRGDSGSPATWTTRGFVFTRHSQTTAIPSCPEGTVPLYSGFSFLFVQGNQRAHGQDLGTLGSCLQRFTTMPFLFCNVNDVCNFASRNDYSYWLSTPALMPMNMAPITGRALEPYISRCTVCEGPAIAIAVHSQTTDIPPCPHGWISLWKGFSFIMFTSAGSEGTGQALASPGSCLEEFRASPFLECHGRGTCNYYSNSYSFWLASLNPERMFRKPIPSTVKAGELEKIISRCQVCMKKRH
B5: Tum-2: residues 1 to 132 of Tumstatin (SEQ ID NO:23) (protein)
chain: GLKGKRGDSGSPATWTTRGFVFTRHSQTTAIPSCPEGTVPLYSGFSFLFVQGNQRAHGQDLGTLGSCLQRFTTMPFLFCNVNDVCNFASRNDYSYWLSTPALMPMNMAPITGRALEPYISRCTVCEGPAIAI
modifications: Tum-2 (amino acids 1-132 of SEQ ID NO10)

Columns and labels:
C-PAE cells = assay: Cell cycle analysis (propidium iodide, flow cytometry); type: cell-based, bovine; conditions: for percentage of cells in G0/G1 phase: bFGF control 53.4%; for G1 (cell cycle arrest assay): Table 4
Protocol: To further evaluate the mechanism of T3 peptide on endothelial cell proliferation, the effect of T3 peptide on cell cycle progression was analyzed. In the growth arrested and contact inhibited cells (0 hour), 4.1% of cells were in S phase. […] This was true even at a maximal dosage of 100 μg/ml. The effect of the T3 peptide was dose-dependent, however, with the percentage of cells in S phase at 21.4% at 10 μg/ml, and 20.5% at 25 μg/ml. The percentage of cells in G0/G1 phase was 88.3% at 0 hour, 53.4% for the bFGF control, and 57.6%, 57.6% and 71.0% for treatments with T1, T6 and T3 peptide, respectively. […] Apoptotic Activity: Peptides T2, T3, T4, T5 and T6 (10 μg/ml concentration) were tested for their effect of viability of C-PAE cells using the MTT assay, as described in Examples 32 and 36 above. The results are shown in FIG. 43D, which is a histogram showing cell viability as measured at OD595 (y-axis), and treatments with the synthetic peptides (x-axis). […] TNF-α (100 ng/ml) was used to serve as a positive control in inducing endothelial cell apoptosis.
The effect of Tumstatin-44-131 and Tum-5-125-C-A on the cell cycle were assayed similarly to Example 4 above. Briefly, C-PAE cells were growth arrested by contact inhibition for 48 hours. The cells, at 10^5 cells per well, were then harvested and plated into a 12-well plate coated with fibronectin in 5% FCS and either recombinant Tumstatin-44-131 or Tum-5-125-C-A. After 21 hours, the cells were harvested and fixed in 70% ice-cold ethanol. The fixed cells were rehydrated a room temperature for 30 minutes in PBS containing 2% FCS and 0.1% Tween-20, centrifuged and resuspended in 0.5 ml of the same buffer. RNase (5 μg/ml) digestion was done at 37° C. for one hour, followed by staining with propidium iodide (5 μg/ml). The cells were then counted using an EPICS XL-MCL flow cytometer (Beckman-Coulter Instruments, Fullerton, Calif., USA).

WM-164 cells = assay: Attachment of melanoma cells to coated plates; type: cell-based, human
Description: Tumstatin and all three of the deletion mutants […] attachment of WM-164 melanoma cells to the plates.

HUVEC cells = assay: Cell adhesion assay with integrin blocking antibodies; type: cell-based, human; conditions: label = plate coating
Protocol: The attachment of HUVECs to Tumstatin-coated plates in the presence of integrin subunits α1 through α6, β1, and αvβ3 integrin blocking antibody was examined. This assay was performed according to the method of Senger et al. (Senger, D. R. et al, 1997, Proc. Natl. Acad. Sci. USA 94:13612-7), with minor modification. 96-well plates were coated with either human Tumstatin, mouse laminin-1, or human Type IV collagen (Collaborative Biomedical Prods., Bedford, Mass., USA) at a concentration of 10 μg/ml overnight at 37° C. Vitronectin (Collaborative Biomed. Prods.) at a concentration of 0.5 μg/ml was then used to coat the plates. The remaining protein binding sites were blocked with 100 mg/ml of BSA (Sigma Chemical Co., St. Louis, Mo., USA) in PBS for 2 hours. HUVEC cells were grown to subconfluence (70-80%) in EGM-2 medium, gently trypsinized and resuspended in serum-free medium (1.5×10^5 cells/ml). The cells were mixed with 10 μg/ml of either mouse IgG, (control) (Life Technologies/Gibco BRL, Gaithersberg, Md., USA) or antibody (mouse monoclonal antibody to the human β1 integrin (clone P4C10) (Life Technologies/Gibco BRL); monoclonal antibody to human integrins α1 through α.6 (CHEMICON Int'l, Temecula, Calif., USA); αvβ3 integrin (clone LM609) (CHEMICON Int'l) and incubated for 15 minutes at room temperature, with gentle agitation. One hundred microliters of the cell suspension was then added to each well and incubated for 45 minutes at 37° C. Unattached cells were removed by washing, and the number of attached cells were counted after staining with methylene blue. C-PAE cells were used in separate experiments, following the above procedure.
Cell Attachment Activity: Cell attachment using endothelial cells was performed as described above. HUVEC or C-PAE cells were incubated with monoclonal anti-human integrin antibodies, control mouse IgG (10 μg/ml), or synthetic peptide, plated onto pre-coated 96-well plates, and the number of cells attaching to the plates was determined using measurement of methylene blue staining at OD655. […] CNGRC peptide was used as a control.
The cell attachment assay was performed as described above.

C-PAE = assay: Endothelial tube formation assay (Table 4); type: cell-based, bovine
Protocol: Deletion fragments of tumstatin were cloned into bacterial expression vectors, expressed, purified using nickel chromoatography, and then analyzed for in vitro anti-angiogenic, and associated, activity. Special efforts were made to ensure the removal of contaminating endotoxins from the protein preparations. Full-length Tumstatin, Tumstatin-N53 and two additional deletion mutants (Tum-2C and Tum-KE) were made and tested. The deletion mutants were tested for endothelial cell proliferation, cell cycle progression, apoptosis, and endothelial tube formation.

Goodpasture autoantibody = assay: Reactivity with Goodpasture autoantibody (western blotting); type: binding, human
Description: Goodpasture syndrome is an autoimmune disease characterized by pulmonary hemorrhage and/or rapidly progressing glomerulonephritis, which are caused by the disruption of glomerular and alveolar basement membranes through immune injury associated with autoantibody activity against α3(IV) NC1. Recently, the most probable disease-related pathogenic epitope was identified in the N-terminal portion (Kalluri, R. et al., 1996, J. Biol. Chem. 271:9062-8; Hellmark, T. et al., 1999, Kidney Int. 55:938-44), and was then further confined within the N-terminal 40 amino acids (Hellmark, T. et al., 1999, J. Biol. Chem. 274:25862-8; Netzer, K. O. et al., 1999, J. Biol. Chem. 274:11267-74). The N-terminal Tumstatin-44-131 consists of residues 44-131 of Tumstatin, which is outside of the Goodpasture autoepitope. To further confirm that Tumstatin-44-131 would not be detected by Goodpasture autoantibody, antisera from patients with Goodpasture was used for western blotting.

Molecule | binding of WM-164 cells to coated plates (WM-164 cells) | G1 (cell cycle arrest assay) (C-PAE cells) [µg] | inhibition of HUVEC attachment to coated plates by αvβ3 antibody (HUVEC cells; 10 μg/ml antibody) | inhibition of HUVEC attachment to coated plates by β1 antibody (HUVEC cells; 10 μg/ml antibody) | Tube (Endothelial tube formation assay) (C-PAE) | detection by antisera / autoantibodies from patients with Goodpasture syndrome (Goodpasture autoantibody) | other results
LQRFTTMPFLFCNVNDVCNF [T3] | – | – | – | – | – | – | percentage of cells in S phase (C-PAE cells; bFGF 24 hours (control 22.1%), 50 μg/ml): 13.8%; percentage of cells in S phase (C-PAE cells; bFGF 24 hours, 10 μg/ml): 21.4%; percentage of cells in S phase (C-PAE cells; bFGF 24 hours, 25 μg/ml): 20.5%; percentage of cells in G0/G1 phase (C-PAE cells): 71.0%
GLKGKRGDSGSPATWTTRGF [T1] | – | – | – | – | – | – | percentage of cells in S phase (C-PAE cells; bFGF 24 hours (control 22.1%), T1 or T6, maximal dosage of 100 μg/ml): 22.3%; percentage of cells in G0/G1 phase (C-PAE cells): 57.6%
B1 | bind to WM-164 cells | 5 | inhibited this adhesion | inhibited this adhesion | active | did not bind autoantibodies | inhibition of HUVEC attachment to coated plates by α6 antibody (HUVEC cells; 10 μg/ml antibody): did not
B2 | – | <5 | 47.1% | 47.5% | active | failed to detect | percentage of cells in S phase (C-PAE cells; 5% FCS 21 hours (control 21.5%), dose not given): 6.0%; percentage of cells in S phase (C-PAE cells; 5% FCS 21 hours, 1 μg/ml): 19.3%; percentage of cells in S phase (C-PAE cells; 5% FCS 21 hours, 10 μg/ml): 11.3%
B3 | bind to WM-164 cells | – | – | – | – | – | –
B4 | bind to WM-164 cells | 10 | 80% | 54% | active | detected | inhibition of HUVEC attachment by antibody to subunits α1 through α4 (HUVEC cells): did not block; inhibition of HUVEC attachment by αvβ3 antibody and β1 antibody together (HUVEC cells): 91%; inhibition of HUVEC attachment to coated plates by α5 antibody (HUVEC cells; 10 μg/ml antibody): 20%; inhibition of HUVEC attachment to coated plates by α6 antibody (HUVEC cells; 10 μg/ml antibody): 54%
B5 | bind to WM-164 cells | – | – | – | – | – | –
